Patent US6485937

Assays:
[1] = target: HIV TAT trans-activating protein (wildtype TAT, His-tagged fusion)
[2] = target: carboxy terminal domain (CTD) of RNA polymerase II fused to GST (GST-CTD) [GST: P08515]

B1: FLAG-epitope tagged HIV tat interacting protein of 30 kDa (f-TIP30) (protein)
chain: DYKDDDDKMAETEALSKLREDFRMQNKSVFILGASGETGRVLLKEILEQGLFSKVTLIGRRKLTFDEEAYKNVNQEVVDFEKLDDYASAFQGHDVGFCCLGTTRGKAGAEGFVRVDRDYVLKSAELAKAGGCKHFNLLSSKGADKSSNFLYLQVKGEVEAKVEELKFDRYSVFRPGVLLCDRQESRPGEWLVRKFFGSLPDSWASGHSVPVVTVVRAMLNNVVRPRDKQMELLENKAIHDLGKAHGSLKP
In the case of B1, the “stimulation of f-TIP30 kinase activity on GST-CTD substrate (in vitro kinase assay)” value [1] is reported as “stimulate the kinase activity of recombinant f-TIP30 on GST-CTD substrate in a dose dependant manner” and the “in vitro kinase assay (phosphorylation of GST-CTD, [g-32P]ATP, autoradiography)” value [2] is reported as “it could phosphorylate the carboxy terminal domain (CTD) of RNA polymerase II fused to GST (GST-CTD) in an in vitro kinase assay”.
